This is an account of results in IntAct's records for PubMed 18278053.

B1: Integrin beta-1 (Gallus gallus (Chicken)), P07228 (parent)
chain: MAETNLTLLTWAGILCCLIWSGSAQQGGSDCIKANAKSCGECIQAGPNCGWCKKTDFLQEGEPTSARCDDLAALKSKGCPEQDIENPRGSKRVLEDREVTNRKIGAAEKLKPEAITQIQPQKLVLQLRVGEPQTFSLKFKRAEDYPIDLYYLMDLSYSMKDDLENVKSLGTALMREMEKITSDFRIGFGSFVEKTVMPYISTTPAKLRNPCTGDQNCTSPFSYKNVLSLTSEGNKFNELVGKQHISGNLDSPEGGFDAIMQVAVCGDQIGWRNVTRLLVFSTDAGFHFAGDGKLGGIVLPNDGKCHLENNMYTMSHYYDYPSIAHLVQKLSENNIQTIFAVTEEFQAVYKELKNLIPKSAVGTLSSNSSNVIQLIIDAYNSLSSEVILENSKLPKEVTISYKSYCKNGVNDTQEDGRKCSNISIGDEVRFEINVTANECPKKGQNETIKIKPLGFTEEVEIHLQFICDCLCQSEGEPNSPACHDGNGTFECGACRCNEGRIGRLCECSTDEVNSEDMDAYCRRENSTEICSNNGECICGQCVCKKRENTNEVYSGKYCECDNFNCDRSNGLICGGNGICKCRVCECFPNFTGSACDCSLDTTPCMAGNGQICNGRGTCECGTCNCTDPKFQGPTCEMCQTCLGVCAEHKDCVQCRAFEKGEKKETCSQECMHFNMTRVESRGKLPQPVHPDPLSHCKEKDVGDCWFYFTYSVNSNGEASVHVVETPECPSGPDIIPIVAGVVAGIVLIGLALLLIWKLLMIIHDRREFAKFEKEKMNAKWDTGENPIYKSAVTTVVNPKYEGK

The variants in this assay derive from B1. Particulars: with urp2_mouse Fermt3, Q8K1B8.
Chain of urp2_mouse Fermt3, Q8K1B8 (Q8K1B8 whole entry): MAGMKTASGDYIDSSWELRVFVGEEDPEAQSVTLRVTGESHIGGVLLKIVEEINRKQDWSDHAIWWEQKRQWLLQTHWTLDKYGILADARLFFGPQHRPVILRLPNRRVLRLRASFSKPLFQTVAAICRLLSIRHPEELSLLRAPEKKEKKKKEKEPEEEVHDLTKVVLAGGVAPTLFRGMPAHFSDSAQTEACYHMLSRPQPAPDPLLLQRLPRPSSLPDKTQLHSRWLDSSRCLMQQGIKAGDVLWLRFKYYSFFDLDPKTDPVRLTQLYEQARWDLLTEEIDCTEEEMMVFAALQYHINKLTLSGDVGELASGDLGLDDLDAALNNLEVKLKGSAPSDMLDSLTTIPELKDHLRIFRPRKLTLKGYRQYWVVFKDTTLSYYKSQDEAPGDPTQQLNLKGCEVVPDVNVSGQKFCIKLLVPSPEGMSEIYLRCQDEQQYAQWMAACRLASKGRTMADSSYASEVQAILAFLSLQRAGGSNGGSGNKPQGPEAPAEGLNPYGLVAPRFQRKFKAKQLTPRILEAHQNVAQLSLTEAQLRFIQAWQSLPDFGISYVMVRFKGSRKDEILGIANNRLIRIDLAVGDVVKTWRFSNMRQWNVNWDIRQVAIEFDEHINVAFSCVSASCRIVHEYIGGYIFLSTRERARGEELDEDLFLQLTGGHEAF
For T793A;T794A, the “effect of a mutation on the interaction” value was “disrupting interaction strength”.
Regarding Y800A, the “effect of a mutation on the interaction” value is recorded as “disrupting interaction strength”.
With W780A, the “effect of a mutation on the interaction” value was “decreasing interaction strength”.
Take Y788A: the “effect of a mutation on the interaction” value was “decreasing interaction strength”.
